Source: the DeepSol protein solubility set

Assay: soluble on expression in E. coli; label from the status in PepcDB or PDB records
For “MNNSRLFRLSRIVIALTAASGMMVNTANAKEEAKAATQYTQQVNQNYAKSLPFSDRQDFDDAQRGFIAPLLDEGILRDANGKVYYRADDYKFDINAAAPETVNPSLWRQSQINGISGLFKVTDKMYQVRGQDISNITFVEGEKGIIVIDPLVTPPAAKAALDLYFQHRPQKPIVAVIYTHSHTDHYGGVKGIISEADVKSGKVQVIAPAGFMDEAISENVLAGNIMSRRALYSYGLLLPHNAQGNVGNGLGVTLATGDPSIIAPTKTIVRTGEKMIIDGLEFDFLMTPGSEAPAEMHFYIPALKALCTAENATHTLHNFYTLRGAKTRDTSKWTEYLNETLDMWGNDAEVLFMPHTWPVWGNKHINDYIGKYRDTIKYIHDQTLHLANQGYTMNEIGDMIKLPPALANNWASRGYYGSVSHNARAVYNFYLGYYDGNPANLHPYGQVEMGKRYVQALGGSARVINLAQEANKQGDYRWSAELLKQVIAANPGDQVAKNLQANNFEQLGYQAESATWRGFYLTGAKELREGVHKFSHGTTGSPDTIRGMSVEMLFDFMAVRLDSAKAAGKNISLNFNMSNGDNLNLTLNDSVLNYRKTLQPQADASFYISREDLHAVLTGQAKMADLVKAKKAKIIGNGAKLEEIIACLDNFDLWVNIVTPN”, the “soluble on expression in E. coli” value was “soluble”. In the case of “MNNVTFEQLQETLYHEKLANGLDVYILPKTGFNKTYATFTTKYGSIDSEFIPLNQKEALHVPDGIAHFLEHKMFEDEEGDVFQLFSKQGASCNAFTSFTRTAYLFSSTTNVKKNVETLLDFVQHPYFTEESVEKEKGIIGQEITMYDDNPDWRNYFGVIENMYEHHPVKIDIAGTIPSISKITKDLLYTCYETFYHPSNMLLFIVGPVDVNEMMTLVKENQGKKEFKPAGDIQRFFPAEPEKVAKPHSVISMSVQTPKCLVGYKEKQPVRQGKDLLVRELGINVLLELMFGQGSKQYEQLDDEGLINDTFSFDHTSEYGFGFTIMGGDTKSPNRLAERIEEMVEAFKEQPLDEAAVKRVIKKKIGGFLRSLNSPEFIANQFTRYEFNKMNLFDVVPTLESLTVEKLTDILHDHFQKERFTVCQVKPEGYEEG”, the “soluble on expression in E. coli” value is reported as “not soluble”. For “MNNYLRKLVEGQHLTEEEMYKAGLLLLNENILESEIAAFLVLLKAKGETAEEIYGLVRALREKALPFSNHIQGAMDNCGTGGDGAQTFNISTTSAFVLAGAGVKVAKHGNRAVSSKTGSADLLEELGVNISSTPNEIDYLLEHVGIAFLFAPAMHPALKRIMKIRKELNVPTIFNLIGPLTNPVNLETQFVGIYKRDMLLPVAQVLQKLGRKQALVVNGSGFLDEASLQGENHVVILKDNEIVETSIEPEKYGFSIVKNEEIRGGNSKENAKITLGVLSGEKSVYRDTVLFNAGLALFANGKAKTIEEGITLAAHSIDSGKALAKLNLLIAASNEELERVN”, the “soluble on expression in E. coli” value was “not soluble”. For “MNPEVTVLMSVYNDKNYLSESIESILNQTFENFEFLIINDASTDGSGELLEEYSKKDKRIRLIHNKNNRGLSYSLAEGVSLAKAPWIARMDADDVSFKDRLAVQMDHVKAHSELDILGSYVIDIDDKGNELEIRKVPTTHKEIANLIWTCPFIHPTVLFKKDSIIKAGSYDRNLRRRQDYDLWFRCLEAKLKFENIDKPLLYYRSTDDYYKKNNFKVQVQQAKMGFAGARRVKAKPIAYIGITVAFIKGILPYHIRKPLSQLLKKVDPRRALEHHHHHH”, the “soluble on expression in E. coli” value was “soluble”. With “MNPILTAAKQLLHKEEKILSTLKCSLTGYMITHKVPYPGMLLATNQRLLFFSQYKNTFIAEFDYEKILSIETKRRIFDKKIIFYYEDEYITLGYITSSNVEAFIDLLQRNSKTSTGL” the “soluble on expression in E. coli” value was “not soluble”. For “MNPKEQSSYLYEQYDDALGEQLKPITSQYVLQDLNKNSSKQKAQVVQKVDSEYVLRDLRNQADQNQNFSRDAPNRPFLTGTPVNAKEIRSQIESLDNAIVIPQIINGKVFFTTHGDADARTAVEGSVSNPNLNETNVGASKPEGVDLSKMKFTFAQLVALLGPSTCQRLEREFVKKNRLSDAEMSQLRTARESISELNLATGRSTDTLRTAQSVEPNLLSIRTANSLEPNLLSVYSARSPGVFTKKEGMLTAQSPEPNLLSVRTANSLEPNLLSVKPAKELTTISNLKAQSPGLLTAQSAEPNLLSTRTARSSSNTSLIDTESKDVQTCIEIQSPTTGVLTAQSIATPSGSCQSVFTAKEIESIRSSQDVLTAVEILTDMSRSSQDVRTALEISE”, the “soluble on expression in E. coli” value was “not soluble”. In the case of “MNQAIGGSFDDVIGNHQADTAMIVQISADRKEINLVSIPRDSLVDVPQCETSKGTIPAQYNVMFNSIFAGAYKTGGDLSSAASCTLNAVNSLTGLNIQNFIVVDFAGLVKMIDSVGGVDLCIPQNVNDPYTGLNLDKGMHHLDGVAATQYARIRHGIGDGSDTSRTTRQQYLIKQLMSEALSKNLFTDTAQLYQLAKSALKSLNISQGMADTAALAGLAMSLKNFTMTNLQTQTVPVVPAPSDPNRSVWTDEADNLWEKMRAGKPIFDTADSNSGGSSDTSSDNSASSDDSGTTDSNQSDTTAETPDPVTGLITKSDGTLVDPSTGGTVDPDDGSIHDATTGQYIGLADRYLNATVCAVPAKNLEHHHHHH”, the “soluble on expression in E. coli” value is reported as “soluble”. With “MNQFYKRHFLRLLDFTPAEIIALLDLATELKKDKKSGCEQQKLVGKNIALIFEKDSTRTRCSFEVAAYDQGARVTYLGPGGSQIGHKESIKDTARVLGRMYDGIQYRGYGQRVVETLAEFAGVPVWNGLTDEFHPTQLLADLLTMREHLPNKSLNKMTLAYLGDTRNNMGNSLLEAAALVGMDLRLVAPKACWPEEAFVISCQALAQKTGGKITLTEDIAEGVNGADFLYTDVWVSMGEPKEVWQERINLLKPYQVNMRVLTLTGNPQVKFLHCLPAFHDDQTTIGKQMAEQYDLPGGMEVTEEVFESAHSIVFDQAENRLHTIKAVMVATMSKI” the “soluble on expression in E. coli” value was “not soluble”. In the case of “MNQINIEIAYAFPERYYLKSFQVDEGITVQTAITQSGILSQFPEIDLSTNKIGIFSRPIKLTDVLKEGDRIEIYRPLLADPKEIRRKRAAEQAAAKDKEKGA”, the “soluble on expression in E. coli” value is reported as “soluble”. In the case of “MNQPDISTLVQRIEQLELNQSRLRILLSHAPEKHKAFDKACYVANLSFEQEAHVRQTILDFLDSDKEDINELLSSIEAIVRYTVDAKSLISGFKMRGTAPDRWKQIDPHNEC”, the “soluble on expression in E. coli” value is reported as “not soluble”. With “MNQVTTYLWETHLPGGSHWSGVVRRGTTLRLTDVSGGANAAVLFYNLEEKLERYNMADTLKTQHTFCLTKGHACHSDMGRIFCCITEDTAGWHDTVCGLSDAELIQQKYGTGRYQELRNDMYRNGLDGMLVELGKWGLGRRDVVSNINFFSKVTANSVGELQFHVSHSKAGDHVDLAFAMDTLVVLSAAPHPLDPAATYRPGAVNLAVFPSTPAVTGACAHIAENARGLENTRRLYAYGGVKLEHHHHHH” the “soluble on expression in E. coli” value was “soluble”. In the case of “MNRESFAAGERLVSPAYVRQGCEARRSHEHLIRLLLEKGKCPENGWDESTLELFLHELAIMDSNNFLGNCGVGEREGRVASALVARRHYRFIHGIGRSGDISAVQPKAAGSSLLNKITNSLVLDIIKLAGVHTVANCFVVPMATGMSLTLCFLTLRHKRPKAKYIIWPRIDQKSCFKSMITAGFEPVVIENVLEGDELRTDLKAVEAKVQELGPDCILCIHSTTSCFAPRVPDRLEELAVICANYDIPHIVNNAYGVQSSKCMHLIQQGARVGRIDAFVQSLDKNFMVPVGGAIIAGFNDSFIQEISKMYPGRASASPSLDVLITLLSLGSNGYKKLLKERKEMFSYLSNQIKKLSEAYNERLLHTPHNPISLAMTLKTLDEHRDKAVTQLGSMLFTRQVSGARVVPLGSMQTVSGYTFRGFMSHTNNYPCAYLNAASAIGMKMQDVDLFIKRLDRCLKAVRKERSKESDDNYDKTEDVDIEEMALKLDNVLLDTYQDASS”, the “soluble on expression in E. coli” value is reported as “soluble”. In the case of “MNRHLIHRRDILDTLVADLQAQQPDHIAVTGDLVNIALVNEFAPARQWLESVGPADRVSLVPGNHDAYVRSTAHRFAETFPDYISGDDATPGFPYLRRREAIAIIGVSSAVPTAPLRATGWLGAPQRAALEALLQSLAGERVFKVLLIHHPLQSRSRHKRLTDAADLIALLQRHPVDLVLHGHDHVHATVRIDTPFGAIPVVGVPSASAMNDRHRPSAAYNLFKISEGNLEHHHHHH”, the “soluble on expression in E. coli” value is reported as “soluble”. In the case of “MNRKGNMKRKTLKNIVEYDGIGLHKGEIIKMKLIPAKSGGIIFRMVNMPEGKNEILLDYRNIFDLTRGTNLKNEHGAMVFTIEHFLSALYVLGITDLVIELNGNELPICDGSAIKFLDLFQESGIVELDEYVEEIIVKEPIFLSKGDKHVIALPYPDGYKLTYAIRFEHTFLKSQLAEFEITEKNYRKEIASARTFGFDYEVEYLKQNNLALGGTLENAIVIKKDGVLNPDGLRFDDEFVRHKMLDIIGDLKILNRPIRAHIIAIKAGHLIDIEFAKILDNIKLEHHHHHH”, the “soluble on expression in E. coli” value is reported as “soluble”. In the case of “MNRLPRIEQYGLIGDTQTSAHVCDDGSIDWLCLPRFDSPAVFASLLGTQKHGSWQISPAPSTGRSGPEKVTERRYRGDSLVLESVWRTPTGSVRVLDFMPPRDGTPQVIRIVEGLTGDVEMLSAMRPRPGYLEHHHHHH”, the “soluble on expression in E. coli” value is reported as “not soluble”. With “MNRLPTCLLAATLFLGSASLYAEDPACARVRLADPGWSDIAVTNATAAFLLESLGYQVKIDTLSVPIIYGGLRDGQVDAFLGGWMPAHQDYHDKFVASGQVERLGRNLDGTRFTLAVPRYVWDAGVHRFEDLAAQGQRFNRKLYGIGSGAPANQSIQKMIDANQFGLGDWKLVESSEQAMLAELGRAEKRQRWLVFLGWTPHPMNIRHDLRYLEGGEQYFGDRGQVYTLARKGYAAQCPNPARLLANLRFDLDMENRLMSDALEGTATPASATRAWLKANPRVLEAWLQGVTSRDGGDALAAVRGQP” the “soluble on expression in E. coli” value was “not soluble”. In the case of “MNRMEYNPIKKVVSGNYAAAYAALHARVQVVAAYPITPQTSIIEKIAEFIANGEADIQYIPVESEHSAMAACIGASATGARVFTATSAQGLALMHEMLHWAAGSRLPIVMVNVNRAMAPPWSVWDDQTDSLSQRDTGWMQFYAENNQEVYDGVLMAYKVAETVNIPTMIIESAFILSHTYEVVNMIPQELVDEFLPPRKPLYTLTDFENPIAVGALATPADYYEFRYKIAKAHEEAKKVIKSVGKEFGERFGRDYSKMIETGYIEDADFVFMGMGSLMGTVKEAVDLLRKEGYKVGYAKVRWFRPFPKEELLEIAESVKGIAVLDRNFSFGQEGILFTEAKGALYNTGVRPIMKDYIVGLGGRDFTVRDVKAIAEDMKKVVESGKLDKEIEWYHLKR”, the “soluble on expression in E. coli” value is reported as “soluble”. In the case of “MNRPHSATGDRPLALVDEHAHAWSPKTARARFRKGLTGPTAGVAAGHTQANLISVPADWAYDMLLFCTRNPQPCPVLDVTDAGSWTTVLADGADLRTDLPRYRVWRDGELVDEPSDVREHWRDDLVTFLIGCSFTFEWALAAAGVPIRHVEQGRNVPMYVTSRACRPAGRLRGPMVVSMRPVPPAHLSAAIHESSLLPAVHGSPVHCGDPSALGIDDLDRPDFGEAVYREPDDIPVFWACGVTPQAAVMASRPPFALTHAPGQMFLTDARDEQYRVALEHHHHHH”, the “soluble on expression in E. coli” value is reported as “soluble”. In the case of “MNRQIPKVPDAIELEYDLDEPPQKVWRAISIPAFREHWLPKEALAQPEAIKVSPGREVCYRLREDTPPFLESTVTFQIASNDRGGTSLRIIHDLPAIKSGRMTKAAANHNGSPIKLAALEHHHHHH”, the “soluble on expression in E. coli” value is reported as “not soluble”. In the case of “MNRVYVGTVSAVTDIGVFVNLNKRLRGLIHRRNLGNNRFSEDEEILVQVSGIGLSGEIDLKPVKMDGYKVVEISKEVGRVEIAELENLEHHHHHH”, the “soluble on expression in E. coli” value is reported as “not soluble”. For “MNSAPLLVDPSTQSATVVAETQPFGDRCMLESLIRRPFCMNPQLQTHPYDRQPTTAPRLQMMPRRDQTQNPVIAELMSTVTRVRDRKRQRDEEAMYPRRSVGLQTDTEDVSEVLDGGTRISDMKRVRREELLDQSSLDGITFETSGTNTSDEPHSQIITSNSSSLPSTSASSSSDRPRAMRSNQEMRQARRARRQRQTQHESQRMQLEHRLQQITGPVPGSEHNCMTGCPHLHQQQQQQHQQPLLHIQLNPIPPQPQTGPNSVSPTIAPGAMLRAHPLASTFPYFSLPLTQNYPVMMVLPMAAVAQQHAAAAAAVVAVAAAAAVPQPPPPPPQPTLHAPVPIRPQNNPYNLYAFRNSPINVHAPGYVGEYVELFRSQQFLFPTSERYGIDRHHMFGGLDLDLPVGASKVEIDTFTIPTVYAKKTDGEEDEDTCTVCLSSFEDGESIQKLRCNHVFHPECIYKWLDINKRCPMCREEIDRPESLRTQPGL”, the “soluble on expression in E. coli” value was “not soluble”.
